Experimental data as given in paper PMC12162372, “Imaging Cell Surface Plectin in PDAC Patients – A First-In-Human Phase 0 Study Report” (Molecular Imaging and Biology, 2025).
Ends that are not written are not given here.

How the values were obtained:
[1] = biological target: T1, CSP in pancreatic tumors (Homo sapiens, UniProt Q15149); test: Ex vivo planar scintigraphy of resected tumor and adjacent normal tissue; format: in vivo; set-up: from tissue; host or cells: pancreatic tumours of patients, imaged in vivo and as resected specimens
T1 sequence (Q15149 whole entry): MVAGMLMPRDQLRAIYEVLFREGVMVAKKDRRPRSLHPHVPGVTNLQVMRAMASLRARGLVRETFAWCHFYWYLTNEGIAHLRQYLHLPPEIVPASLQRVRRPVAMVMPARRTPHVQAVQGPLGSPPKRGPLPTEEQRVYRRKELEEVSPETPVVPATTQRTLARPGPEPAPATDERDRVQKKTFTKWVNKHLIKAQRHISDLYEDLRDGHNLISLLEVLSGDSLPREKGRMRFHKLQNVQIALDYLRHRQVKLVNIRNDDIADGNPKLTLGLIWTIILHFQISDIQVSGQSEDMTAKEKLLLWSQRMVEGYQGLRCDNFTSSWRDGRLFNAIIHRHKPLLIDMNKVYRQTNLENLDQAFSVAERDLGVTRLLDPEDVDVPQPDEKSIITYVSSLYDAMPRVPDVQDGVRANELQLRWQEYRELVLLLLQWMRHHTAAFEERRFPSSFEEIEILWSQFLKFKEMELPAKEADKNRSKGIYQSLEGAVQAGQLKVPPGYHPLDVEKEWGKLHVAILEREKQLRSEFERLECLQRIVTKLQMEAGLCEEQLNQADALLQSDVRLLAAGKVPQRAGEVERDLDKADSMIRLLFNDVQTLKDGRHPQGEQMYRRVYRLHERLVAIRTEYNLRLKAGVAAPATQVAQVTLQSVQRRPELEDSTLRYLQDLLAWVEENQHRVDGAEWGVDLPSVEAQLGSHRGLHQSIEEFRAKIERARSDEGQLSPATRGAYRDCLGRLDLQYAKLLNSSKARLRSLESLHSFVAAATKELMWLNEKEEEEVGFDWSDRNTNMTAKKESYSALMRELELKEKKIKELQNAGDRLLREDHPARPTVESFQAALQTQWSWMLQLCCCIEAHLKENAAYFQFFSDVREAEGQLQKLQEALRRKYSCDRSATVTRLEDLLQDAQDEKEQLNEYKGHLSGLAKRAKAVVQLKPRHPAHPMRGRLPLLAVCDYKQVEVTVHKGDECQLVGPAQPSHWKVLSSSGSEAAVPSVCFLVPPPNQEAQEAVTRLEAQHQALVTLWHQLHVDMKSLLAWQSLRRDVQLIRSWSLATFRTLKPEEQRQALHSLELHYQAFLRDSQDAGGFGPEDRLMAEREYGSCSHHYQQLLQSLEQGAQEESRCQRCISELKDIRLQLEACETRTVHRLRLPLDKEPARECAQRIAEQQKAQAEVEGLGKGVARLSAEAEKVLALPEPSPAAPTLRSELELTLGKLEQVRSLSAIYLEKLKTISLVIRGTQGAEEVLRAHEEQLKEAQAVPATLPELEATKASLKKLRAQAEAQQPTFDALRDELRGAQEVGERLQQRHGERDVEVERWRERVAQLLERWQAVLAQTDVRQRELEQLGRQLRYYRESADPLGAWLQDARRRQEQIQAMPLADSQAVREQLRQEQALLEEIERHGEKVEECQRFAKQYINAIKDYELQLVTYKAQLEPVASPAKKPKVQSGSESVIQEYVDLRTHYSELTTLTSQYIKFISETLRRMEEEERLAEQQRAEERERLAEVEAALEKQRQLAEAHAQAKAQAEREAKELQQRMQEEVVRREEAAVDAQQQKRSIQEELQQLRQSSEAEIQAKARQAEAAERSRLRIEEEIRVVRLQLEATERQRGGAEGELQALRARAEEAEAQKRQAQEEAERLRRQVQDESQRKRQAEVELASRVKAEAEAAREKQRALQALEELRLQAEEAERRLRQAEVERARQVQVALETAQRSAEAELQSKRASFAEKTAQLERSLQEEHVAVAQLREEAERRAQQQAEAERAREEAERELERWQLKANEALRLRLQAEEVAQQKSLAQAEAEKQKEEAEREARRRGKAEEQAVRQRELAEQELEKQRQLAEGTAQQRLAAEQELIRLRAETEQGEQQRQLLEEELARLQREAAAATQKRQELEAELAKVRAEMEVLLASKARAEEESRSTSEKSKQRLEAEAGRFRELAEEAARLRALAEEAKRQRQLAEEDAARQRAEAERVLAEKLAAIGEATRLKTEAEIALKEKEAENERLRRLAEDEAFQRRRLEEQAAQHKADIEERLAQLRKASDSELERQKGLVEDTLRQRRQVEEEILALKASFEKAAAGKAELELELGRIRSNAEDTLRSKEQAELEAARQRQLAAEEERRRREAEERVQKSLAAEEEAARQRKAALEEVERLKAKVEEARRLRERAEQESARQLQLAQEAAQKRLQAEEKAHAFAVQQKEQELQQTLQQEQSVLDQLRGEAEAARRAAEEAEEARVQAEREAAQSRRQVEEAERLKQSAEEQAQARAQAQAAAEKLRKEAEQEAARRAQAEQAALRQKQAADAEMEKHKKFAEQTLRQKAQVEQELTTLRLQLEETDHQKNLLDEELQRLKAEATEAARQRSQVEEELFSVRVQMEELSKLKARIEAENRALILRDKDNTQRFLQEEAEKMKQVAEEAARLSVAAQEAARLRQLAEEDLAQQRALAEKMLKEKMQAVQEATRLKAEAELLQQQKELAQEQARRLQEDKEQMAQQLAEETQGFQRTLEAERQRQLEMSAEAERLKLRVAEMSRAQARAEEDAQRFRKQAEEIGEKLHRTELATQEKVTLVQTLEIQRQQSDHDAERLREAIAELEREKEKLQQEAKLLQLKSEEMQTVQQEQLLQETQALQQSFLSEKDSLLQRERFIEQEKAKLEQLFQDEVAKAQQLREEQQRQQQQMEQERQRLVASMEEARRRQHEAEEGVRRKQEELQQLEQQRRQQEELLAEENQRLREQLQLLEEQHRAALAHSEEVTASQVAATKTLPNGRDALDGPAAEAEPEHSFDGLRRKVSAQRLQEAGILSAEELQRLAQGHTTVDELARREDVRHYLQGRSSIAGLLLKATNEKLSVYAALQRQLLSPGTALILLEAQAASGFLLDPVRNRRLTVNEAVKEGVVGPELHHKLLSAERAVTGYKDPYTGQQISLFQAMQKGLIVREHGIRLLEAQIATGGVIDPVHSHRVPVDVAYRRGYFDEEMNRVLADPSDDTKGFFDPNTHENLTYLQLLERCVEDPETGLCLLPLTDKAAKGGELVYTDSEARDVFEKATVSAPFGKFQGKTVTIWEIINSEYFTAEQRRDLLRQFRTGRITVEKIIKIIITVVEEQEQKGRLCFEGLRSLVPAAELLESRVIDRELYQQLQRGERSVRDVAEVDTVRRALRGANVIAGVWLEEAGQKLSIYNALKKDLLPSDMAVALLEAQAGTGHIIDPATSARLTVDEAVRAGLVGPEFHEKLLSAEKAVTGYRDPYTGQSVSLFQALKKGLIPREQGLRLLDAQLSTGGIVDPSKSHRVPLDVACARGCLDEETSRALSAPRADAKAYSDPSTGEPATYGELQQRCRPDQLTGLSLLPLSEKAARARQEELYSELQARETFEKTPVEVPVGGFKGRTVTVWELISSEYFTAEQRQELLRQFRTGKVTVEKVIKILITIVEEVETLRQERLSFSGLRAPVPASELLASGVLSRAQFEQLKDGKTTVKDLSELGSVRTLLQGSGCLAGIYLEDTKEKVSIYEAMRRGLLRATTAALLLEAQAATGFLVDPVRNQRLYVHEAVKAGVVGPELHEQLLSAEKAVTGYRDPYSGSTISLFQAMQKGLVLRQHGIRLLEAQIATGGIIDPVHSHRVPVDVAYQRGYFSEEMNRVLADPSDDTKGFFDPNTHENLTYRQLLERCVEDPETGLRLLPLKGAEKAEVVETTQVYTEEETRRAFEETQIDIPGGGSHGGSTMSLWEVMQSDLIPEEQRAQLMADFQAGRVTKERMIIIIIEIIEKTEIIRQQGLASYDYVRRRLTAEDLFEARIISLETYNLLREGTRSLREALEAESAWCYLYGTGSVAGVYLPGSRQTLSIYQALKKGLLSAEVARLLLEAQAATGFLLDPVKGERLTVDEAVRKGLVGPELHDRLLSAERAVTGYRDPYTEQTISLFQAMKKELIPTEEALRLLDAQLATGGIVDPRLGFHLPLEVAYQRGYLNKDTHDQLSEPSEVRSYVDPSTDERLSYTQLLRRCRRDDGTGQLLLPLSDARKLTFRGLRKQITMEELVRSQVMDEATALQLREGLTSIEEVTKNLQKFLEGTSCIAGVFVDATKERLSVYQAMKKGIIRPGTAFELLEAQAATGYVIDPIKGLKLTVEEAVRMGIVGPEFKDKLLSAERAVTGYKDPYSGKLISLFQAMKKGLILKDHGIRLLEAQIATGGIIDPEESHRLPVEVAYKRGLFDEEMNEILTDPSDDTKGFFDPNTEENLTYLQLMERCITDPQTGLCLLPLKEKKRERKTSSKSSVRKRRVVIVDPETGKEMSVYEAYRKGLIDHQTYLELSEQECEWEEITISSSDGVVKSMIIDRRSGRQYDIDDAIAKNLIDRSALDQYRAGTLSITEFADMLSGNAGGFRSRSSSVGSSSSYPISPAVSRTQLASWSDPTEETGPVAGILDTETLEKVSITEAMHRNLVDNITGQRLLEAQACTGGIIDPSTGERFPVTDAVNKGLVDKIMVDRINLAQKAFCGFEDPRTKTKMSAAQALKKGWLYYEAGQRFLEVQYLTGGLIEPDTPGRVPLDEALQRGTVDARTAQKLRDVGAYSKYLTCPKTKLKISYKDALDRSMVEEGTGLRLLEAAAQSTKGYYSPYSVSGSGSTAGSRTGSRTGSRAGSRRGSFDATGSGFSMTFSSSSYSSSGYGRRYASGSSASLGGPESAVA
Procedure: Following surgery, ex vivo planar images of the resected tumor and adjacent normal tissue (e.g., pancreas and duodenum) were obtained at 28 h post-injection. This timing aligns with surgical resection, allowing immediate imaging of fresh specimens. A white light image was collected for one patient to confirm tumor localization, but these images were not systematically obtained.
For ex vivo images, tumor ROIs were drawn using white light imaging, with the surrounding tissue considered background. […] The activity was calculated using planar data methods, ignoring the self-attenuation of the tissue because of tissue thickness.

[2] = human, in vivo
Procedure: (§1) Each patient received a single intravenous 100 µg bolus dose of PTP-01 labeled with 370 MBq ^111In. Whole-body planar scintigraphy was performed at 10 min post-injection, followed by scans at 1, 2, 3, 4, 20, and 50 h. SPECT/CT imaging was performed at 4, 20, and 50 h post-injection using a Siemens Symbia™ T6 dual-head SPECT/CT system with low-energy high-resolution (LEHR) collimators optimized for ^111In imaging. […] Quantitative analysis was conducted at the time using fused SPECT/CT images, and planar imaging remains available for biodistribution assessment. Tumor ROIs were initially defined using fused SPECT/CT images and cross-referenced with planar data for consistency. […] However, attenuation correction was not applied to the SPECT images, as full quantitative SPECT reconstruction was not supported by the scanner at the time. Quantitative analysis (%ID) was derived from planar scintigraphy data using calibration factors from a standard source (syringe) imaged under identical conditions. While SPECT/CT facilitated ROI placement, quantitative measurements were based on planar scintigraphy due to the absence of attenuation-corrected SPECT data. […]
Blood clearance parameters were calculated individually for each patient based on a biexponential fit to blood %ID/g data. […]

[3] = tested on: CSP; settings: input parameter applied to all patients in the Krogh cylinder model, no reference given, cited from earlier work
[4] = biological target: T1, CSP in pancreatic tumors; set-up: CSP, typically localized intracellularly in healthy cells, is aberrantly expressed on the surface of cancer cells; from tissue; host or cells: pancreatic tumours of patients, imaged in vivo and as resected specimens; settings: in vivo, iv, 100 ug
Procedure: as §1
For in vivo images, we generated eight ROIs for each patient, including bladder, heart, left kidney, right kidney, liver, syringe, whole body, and tumor. […] Results were expressed as percent injected dose (%ID). […]

[5] = tested on: CSP (plectin) in murine tumor models; settings: preclinical SPECT imaging of murine tumor models; cited from earlier work
Text: The CSP-targeting peptide KTLLPTP has been adapted for numerous applications as a targeting ligand for imaging agents. […] Tumor models with higher CSP levels also had correspondingly high tumor uptake of ^99mTc-KTLLPTP. Here we report the results of a phase 0 trial examining a tetrameric version of KTLLPTP labeled with ^111In called PTP-01 (NCT01962909) in patients with resectable p ...

Substance	tumor-to-background ratio ([1]; all three patients, confirmed by ex vivo planar scintigraphy)	tumor-to-background ratio ([1]; ex vivo planar scintigraphy of resected specimens, 28 h post-injection, mean across patients)	blood concentrations, fold higher than in the other two patients [2]	elimination half-life (T1/2) ([2]; iv)	Association rate constant (kon) [3]	Internalization half-life [3]	Residualization half-life [3]	Kd ([3]; read-out: Dissociation constant (KD))	average cumulative retention in tumor [4]	tumor accumulation, biodistribution and blood clearance [5]
PTP-01: tetrameric version of KTLLPTP on a branched PEG linker, labeled with ^111In via DOTA; CSP-targeting imaging agent (also: tetramer on branched PEG linker, DOTA chelator labelled with 111In)	exceeding 2	2.18 ± 0.14	50-70 fold	5 to 22 h	100000 M⁻¹ s⁻¹	13 h	120 h	90 nM	8.90 ± 3.31 %ID	–
^99mTc-KTLLPTP	–	–	–	–	–	–	–	–	–	a tumor accumulation and favorable biodistribution in addition to fast blood clearance
